Experimental data as given in patent publication US20230052369A1 (Zymeworks, published 2023).
Where a chain is given by its changes, count along the chain named.

B1: v23657 (bispecific antibody, human IgG1, kappa, L234A L235A)
heavy 1: QVQLKQSGPGLVQPSQSLSITCTVSGFSLTSYGVHWVRQSPGKGLEWLGVIWSGGSTDYNAAFISRLSISKDNSKSQVFFKMNSLQADDTAIYYCARNPLTATVMDYWGQGTSVTVSSASTKGPSVFPLAPSSKSTSGGTAALGCLVKDYFPEPVTVSWNSGALTSGVHTFPAVLQSSGLYSLSSVVTVPSSSLGTQTYICNVNHKPSNTKVDKKVEPKSCDKTHTCPPCPAPEAAGGPSVFLFPPKPKDTLMISRTPEVTCVVVSVSHEDPEVKFNWYVDGVEVHNAKTKPREEQYNSTYRVVSVLTVLHQDWLNGKEYKCKVSNKALPAPIEKTISKAKGQPREPQVYVYPPSRDELTKNQVSLTCLVKGFYPSDIAVEWESNGQPENNYKTTPPVLDSDGSFALVSKLTVDKSRWQQGNVFSCSVMHEALHNHYTQKSLSLSPGGGGGDIVMTQTPASVEAAVGGTVTIKCQASQSIYSSLAWYQQKPGQSPKLLIYDASHLASGVPSRFSGSRYGTEFTLTISGVQCDDAATYYCQGGWYSSAATYVPNTFGGGTEVVVKGGGGSGGGGSGGGGSQEQLVESGGGLVQPEGSLTLTCKASGFTISNNYYMCWVRQAPGKGLEWIACIYGGISGRTYYASWAKGRFTISKTSSTTVTLQMTSLTAADTATYFCVRGYVGTSNLWGPGTLVTVSS
heavy 2: QVQLKQSGPGLVQPSQSLSITCTVSGFSLTSYGVHWVRQSPGKGLEWLGVIWSGGSTDYNAAFISRLSISKDNSKSQVFFKMNSLQADDTAIYYCARNPLTATVMDYWGQGTSVTVSSASTKGPSVFPLAPSSKSTSGGTAALGCLVKDYFPEPVTVSWNSGALTSGVHTFPAVLQSSGLYSLSSVVTVPSSSLGTQTYICNVNHKPSNTKVDKKVEPKSCDKTHTCPPCPAPEAAGGPSVFLFPPKPKDTLMISRTPEVTCVVVSVSHEDPEVKFNWYVDGVEVHNAKTKPREEQYNSTYRVVSVLTVLHQDWLNGKEYKCKVSNKALPAPIEKTISKAKGQPREPQVYVLPPSRDELTKNQVSLLCLVKGFYPSDIAVEWESNGQPENNYLTWPPVLDSDGSFFLYSKLTVDKSRWQQGNVFSCSVMHEALHNHYTQKSLSLSPG
light: DIVMTQSQKFMSTSVGDRVSVTCKASQNVGTNVAWYQQKPGQSRTVLIYSASYRHSGVPDRFTGSGSGTDFTLTISNVQSEDLAEYFCQQYNSYPLTFGTGTKLELKRTVAAPSVFIFPPSDEQLKSGTASVVCLLNNFYPREAKVQWKVDNALQSGNSQESVTEQDSKDSTYSLSSTLTLSKADYEKHKVYACEVTHQGLSSPVTKSFNRGEC
notes: also called 2E8 x 8K22 (VLVH) 2x1
B2: v23659 (bispecific antibody, human IgG1, kappa, L234A L235A)
heavy 1: B1 heavy 1 with K5Q, Q6E, S15T, T30I
heavy 2: B1 heavy 2 with K5Q, Q6E, S15T, T30I
light: B1 light with R44P, T45K, V46A, H55D, F87L, T100A
notes: also called 5G8 x 8K22 (VLVH) 2x1
B3: v23660 (bispecific antibody, human IgG1, kappa, L234A L235A)
heavy 1: QVQLKESGPGLVAPSQSLSITCTVSGFSLTSYAISWVRQPPGKGLEWLGVIWPGGGTNYNSALKSRLSISKDNSKSQVFLKMNSLQTDDTARYYCARGTGTWYFDVWGAGTTVTVSSASTKGPSVFPLAPSSKSTSGGTAALGCLVKDYFPEPVTVSWNSGALTSGVHTFPAVLQSSGLYSLSSVVTVPSSSLGTQTYICNVNHKPSNTKVDKKVEPKSCDKTHTCPPCPAPEAAGGPSVFLFPPKPKDTLMISRTPEVTCVVVSVSHEDPEVKFNWYVDGVEVHNAKTKPREEQYNSTYRVVSVLTVLHQDWLNGKEYKCKVSNKALPAPIEKTISKAKGQPREPQVYVYPPSRDELTKNQVSLTCLVKGFYPSDIAVEWESNGQPENNYKTTPPVLDSDGSFALVSKLTVDKSRWQQGNVFSCSVMHEALHNHYTQKSLSLSPGGGGGDIVMTQTPASVEAAVGGTVTIKCQASQSIYSSLAWYQQKPGQSPKLLIYDASHLASGVPSRFSGSRYGTEFTLTISGVQCDDAATYYCQGGWYSSAATYVPNTFGGGTEVVVKGGGGSGGGGSGGGGSQEQLVESGGGLVQPEGSLTLTCKASGFTISNNYYMCWVRQAPGKGLEWIACIYGGISGRTYYASWAKGRFTISKTSSTTVTLQMTSLTAADTATYFCVRGYVGTSNLWGPGTLVTVSS
heavy 2: QVQLKESGPGLVAPSQSLSITCTVSGFSLTSYAISWVRQPPGKGLEWLGVIWPGGGTNYNSALKSRLSISKDNSKSQVFLKMNSLQTDDTARYYCARGTGTWYFDVWGAGTTVTVSSASTKGPSVFPLAPSSKSTSGGTAALGCLVKDYFPEPVTVSWNSGALTSGVHTFPAVLQSSGLYSLSSVVTVPSSSLGTQTYICNVNHKPSNTKVDKKVEPKSCDKTHTCPPCPAPEAAGGPSVFLFPPKPKDTLMISRTPEVTCVVVSVSHEDPEVKFNWYVDGVEVHNAKTKPREEQYNSTYRVVSVLTVLHQDWLNGKEYKCKVSNKALPAPIEKTISKAKGQPREPQVYVLPPSRDELTKNQVSLLCLVKGFYPSDIAVEWESNGQPENNYLTWPPVLDSDGSFFLYSKLTVDKSRWQQGNVFSCSVMHEALHNHYTQKSLSLSPG
light: DIQMTQTTSSLSASLGDRVTISCSASQGISNYLNWYQQKPDGTVKLLIYYTSSLHSGVPSRFSGSGSGTDYSLTISNLEPEDIATYYCQQYSDLPWTFGGGTKLEIKRTVAAPSVFIFPPSDEQLKSGTASVVCLLNNFYPREAKVQWKVDNALQSGNSQESVTEQDSKDSTYSLSSTLTLSKADYEKHKVYACEVTHQGLSSPVTKSFNRGEC
notes: also called 6B3 x 8K22 (VLVH) 2x1
B4: v23651 (bispecific antibody, human IgG1, kappa, L234A L235A)
heavy 1: QVQLKESGPGLVAPSQSLSITCTVSGFSLTTYAISWVRQPPGKGLEWLGIIWPGGGTNYNSALKSRLSISKDNSRSQVFLKMNSLQTDDTARYYCARGAGTWYFDVWGAGTTVTVSSASTKGPSVFPLAPSSKSTSGGTAALGCLVKDYFPEPVTVSWNSGALTSGVHTFPAVLQSSGLYSLSSVVTVPSSSLGTQTYICNVNHKPSNTKVDKKVEPKSCDKTHTCPPCPAPEAAGGPSVFLFPPKPKDTLMISRTPEVTCVVVSVSHEDPEVKFNWYVDGVEVHNAKTKPREEQYNSTYRVVSVLTVLHQDWLNGKEYKCKVSNKALPAPIEKTISKAKGQPREPQVYVYPPSRDELTKNQVSLTCLVKGFYPSDIAVEWESNGQPENNYKTTPPVLDSDGSFALVSKLTVDKSRWQQGNVFSCSVMHEALHNHYTQKSLSLSPGGGGGQVQLVQSGAEVVKPGASVKISCKASGYTFTGYFMNWVKQSPGQSLEWIGRIHPYDGDTFYNQKFQGKATLTVDKSSNTAHMELLSLTSEDFAVYYCTRYDGSRAMDYWGQGTTVTVSSGGGGSGGGGSGGGGSDIVLTQSPLSLAVSLGQPAIISCKASQSVSFAGTSLMHWYHQKPGQQPRLLIYRASNLEAGVPDRFSGSGSKTDFTLTISPVEAEDAATYYCQQSREYPYTFGGGTKLEIK
heavy 2: B3 heavy 2 with S31T, V50I, K75R, T99A
light: B3 light with T7S, L15V, D93K, L94F
notes: also called 1C8 x Mirvetuximab (scFv) 2x1
B5: v23658 (bispecific antibody, human IgG1, kappa, L234A L235A)
heavy 1: B3 heavy 1 with S35N, I51L, T99S
heavy 2: B3 heavy 2 with S35N, I51L, T99S
light: B3 light with I21F, S56L, D93K
notes: also called 4E6 x 8K22 (VLVH) 2x1
B6: v23656 (bispecific antibody, human IgG1, kappa, L234A L235A)
heavy 1: B3 heavy 1 with S31T, V50I, K75R, T99A
heavy 2: B3 heavy 2 with S31T, V50I, K75R, T99A
light: B3 light with T7S, L15V, D93K, L94F
notes: Two 4-1BB Fabs, one FRα scFv at the C-terminus of one heavy chain; also called 1C8 x 8K22 (VLVH) 2x1
B7: v23662 (bispecific antibody, human IgG1, kappa, L234A L235A)
heavy 1: QVQLKQSGPGLVQPSQSLSITCTVSGFSLTSYGVHWVRQSPGKGLEWLGVIWSGGSTDYNAAFISRLSISKDNSKSQVFFKMNSLQADDTAIYYCARNPLTATVMDYWGQGTSVTVSSASTKGPSVFPLAPSSKSTSGGTAALGCLVKDYFPEPVTVSWNSGALTSGVHTFPAVLQSSGLYSLSSVVTVPSSSLGTQTYICNVNHKPSNTKVDKKVEPKSCDKTHTCPPCPAPEAAGGPSVFLFPPKPKDTLMISRTPEVTCVVVSVSHEDPEVKFNWYVDGVEVHNAKTKPREEQYNSTYRVVSVLTVLHQDWLNGKEYKCKVSNKALPAPIEKTISKAKGQPREPQVYVYPPSRDELTKNQVSLTCLVKGFYPSDIAVEWESNGQPENNYKTTPPVLDSDGSFALVSKLTVDKSRWQQGNVFSCSVMHEALHNHYTQKSLSLSPGGGGGDIVMTQTPSSVSAAVGGTVTIKCQASQTIGSSLAWYQQKPGQPPKLLIYRASTLASGVSSRFRGSGSGTEYTLTISDLECADAATYYCQWTDYGYIYIWAFGGGTEVVVKGGGGSGGGGSGGGGSQEQLVESGGGLVQPEGSLTLTCTASKFSFSSLYYMCWVRQAPGKGLEWIACVYGGSSGNTYYASWAKGRFTISKASSTTVTLQLTSLTAADTATYFCARFDVDGSGFNLWGPGTLVTVSS
heavy 2: B1 heavy 2
light: B1 light
notes: also called 2E8 x 1H06 (VLVH) 2x1

target: T1, full-length human FRα, on 293E cells (human, UniProt P15328 25-234); experiment: flow cytometry, 293E cells expressing FRα
T1 construct: also called folate receptor alpha; FOLR1
T1 sequence (P15328 25-234 limits assumed): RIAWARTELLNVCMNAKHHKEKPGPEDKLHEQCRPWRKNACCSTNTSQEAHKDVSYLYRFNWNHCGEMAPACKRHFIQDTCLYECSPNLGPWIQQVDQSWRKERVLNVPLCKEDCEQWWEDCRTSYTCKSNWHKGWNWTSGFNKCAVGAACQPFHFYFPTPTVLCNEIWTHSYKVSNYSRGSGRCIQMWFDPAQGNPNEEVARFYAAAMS
Experimental: Antibodies were diluted in 50 μl FB (PBS 2% FCS) 1:3 from stock in wells of a 96 V-well plate, and cells added on top. The cells were then left on ice for 30 minutes for the antibodies to bind. The cells were then washed twice in FB, and incubated in 50 μl FB containing 2 μg/ml goat anti-human Alexa647 antibody (Jackson Immunoresearch). The cells were then left on ice for a further 20 minutes, washed twice in FB, resuspended in 100 μl FB and analyzed on a BD Fortessa™ X20. The subsequent data files were analyzed using FlowJo™ and Prism 7 (GraphPad).

Row | binding result | Binder
1 | binds | B1
2 | binds | B2
3 | binds | B3
4 | binds | B4
5 | binds | B5
6 | binds | B6

target: T2, purified human monomeric 4-1BB (human, UniProt Q07011 24-186); experiment: SPR, Ab captured, monomeric 4-1BB injected
T2 construct: the assay used the 4-1BB part released by Factor Xa with the Fc removed; also called h4-1BB; human 4-1BB
T2 sequence (Q07011 other isoform, or with tags, fused parts or gaps limits assumed): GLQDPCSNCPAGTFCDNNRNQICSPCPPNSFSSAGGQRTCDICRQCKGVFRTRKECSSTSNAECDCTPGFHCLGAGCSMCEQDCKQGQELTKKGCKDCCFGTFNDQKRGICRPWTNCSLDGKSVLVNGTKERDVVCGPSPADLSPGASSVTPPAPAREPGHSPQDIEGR
Experimental: The anti-human Fc surface was prepared on a CMS Series S sensorchip by standard amine coupling methods as described by the manufacturer (GE Healthcare). Briefly, immediately after EDC/NHS activation, a 25 μg/mL solution of anti-human Fc in 10 mM NaOAc pH 4.5 was injected at a flow rate of 10 μL/min for 420 s until approximately 2000 resonance units (RUs) were immobilized on all four flow cells. The remaining active groups were quenched by a 420 s injection of 1M ethanolamine at 10 μL/min.
Antibodies for analysis were captured onto the anti-Fc surface by injecting 5 μg/mL solutions at a flow rate of 10 μL/min for 60 s. Using single-cycle kinetics, five concentrations of a two-fold dilution series of 4-1BB starting at 40 nM (for both supernatant and purified antibody runs) with a blank buffer control were sequentially injected at 40 μL/min for 180 s with a 600 s dissociation phase, resulting in a set of sensorgrams with a buffer blank reference. Experiments were performed at a constant temperature of 25° C. The anti-human Fc surfaces were regenerated to prepare for the next injection cycle by one pulse of 10 mM Glycine/HCl pH 1.5 for 120 s at 40 μL/min. Blank-subtracted sensorgrams were analyzed using Biacore™ T200 Evaluation Software v3.0. The blank-subtracted sensorgrams were then fit to the 1:1 Langmuir binding model.
Variants purified by SEC were assessed for binding to human 4-1BB.

Row | Kd [nM] | Binder
7 | 175 | B1
8 | 155 | B7
9 | 208 | B2
10 | 364 | B3
11 | 499 | B5
12 | 480 | B6
